In US20050176123A1, “Protease inhibitor” (Morinaga Milk Industry Co., Ltd., priority 2002, published 2005):

Legend:
Assay in all cases: cysteine protease inhibitory activity (Z-Phe-Arg-MCA fluorescence, method of Barrett et al.)
Format in all cases: biochemical
cathepsin L = biological target: T1, cathepsin L (Homo sapiens, UniProt P07711)
T1 construct: purchased Wako Pure Chemical Industries, Ltd
Protocol: (§1) Inhibitory activities against cysteine proteases including papain, cathepsin B, cathepsin L and cathepsin S (these proteases are available from Wako Pure Chemical Industries, Ltd.) were determined using commercially available bovine lactoferrin (manufactured by Morinaga Milk Industry Co., Ltd.) as a test sample. The inhibitory activity was measured with reference to the method by Barrett et al. (“Methods in Enzymology,” Vol. 80, p 535-561, 1981) as described below. Namely, Z-Phe-Arg-MCA (final concentration of […]: manufactured by Peptide Institute, Inc.) was added as a substrate to 0.1 M acetic acid buffer solution (pH 5.5) in which sample was dissolved at each concentration. Then, cysteine protease (a protease selected from papain, cathepsin B, cathepsin L and cathepsin S in the present test: manufactured by Wako Pure Chemical Industries, Ltd.) solution (final concentration: 15 units/ml) was added, the whole solution was mixed and the reaction was carried out at 37° C. for 10 minutes. Subsequently, fluorescence intensity (excitation wavelength: 370 nm, emission wavelength: 460 nm) of AMC (7-Amino-4-Methyl-Coumarin) released from the digested substrate was measured with a fluorescence spectrometer (manufactured by Hitachi, Ltd.).

cathepsin B = biological target: T2, cathepsin B (Homo sapiens, UniProt P07858)
T2 construct: purchased Wako Pure Chemical Industries, Ltd
Protocol: as §1

papain = biological target: T3, papain (Carica papaya, UniProt P00784); conditions: pH 5.5, 37° C., 10 minutes
T3 construct: purchased Wako Pure Chemical Industries, Ltd
T3 sequence (P00784 134-345): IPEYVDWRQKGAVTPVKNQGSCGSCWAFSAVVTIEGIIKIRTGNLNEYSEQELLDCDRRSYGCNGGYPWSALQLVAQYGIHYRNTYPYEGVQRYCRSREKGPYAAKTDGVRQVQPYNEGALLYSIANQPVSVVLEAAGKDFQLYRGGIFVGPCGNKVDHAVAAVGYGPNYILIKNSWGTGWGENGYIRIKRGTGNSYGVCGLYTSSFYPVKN
Protocol: as §1

[1] = inhibitor 10^−3 M, pH 5.5, 37° C., 10 minutes

T1 sequence (P07711 114-333, species assumed): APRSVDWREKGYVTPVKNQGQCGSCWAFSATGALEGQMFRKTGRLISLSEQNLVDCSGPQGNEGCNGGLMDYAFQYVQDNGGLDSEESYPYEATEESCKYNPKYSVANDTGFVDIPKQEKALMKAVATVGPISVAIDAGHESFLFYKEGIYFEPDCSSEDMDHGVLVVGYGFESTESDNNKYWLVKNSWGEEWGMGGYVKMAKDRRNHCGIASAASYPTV

Substance | cysteine protease-inhibitory activity compared with human lactoferrin peptide Y679-K695 (cathepsin L; similar test to Test Example 5) | cysteine protease-inhibitory activity compared with human lactoferrin peptide Y679-K695 (cathepsin B; similar test to Test Example 5) | inhibition of cysteine protease activity (cathepsin L; [1]) | inhibition rate at each concentration (%) (cathepsin L; inhibitor 10^−4M, pH 5.5, 37° C., 10 minutes) | inhibition of cysteine protease activity (cathepsin B; [1]) [%] | inhibition of cysteine protease activity (papain; inhibitor 10^−3 M) | inhibition rate at each concentration (%) (papain; inhibitor 10^−4M)
bovine lactoferrin peptide Y676-K692: peptide having amino acid numbers 676-692 of SEQ ID No. 2 (bovine lactoferrin), chemically synthesized (YEEYLGTEYVTAIANLK; sig_peptide (1)...(19) Lactoferrin; listed as Bos taurus) | almost equal to the human lactoferrin peptide Y679-K695 | almost equal to the human lactoferrin peptide Y679-K695 | – | – | – | – | –
human lactoferrin peptide Y679-K695: peptide having amino acid numbers 679-695 of SEQ ID No. 1 (human lactoferrin), chemically synthesized (YEKYLGPQYVAGITNLK; sig_peptide (1)...(19) Lactoferrin; listed as Homo Sapiens) | – | – | almost completely inhibited | more than 50% | ~60 | almost completely inhibited | more than 50%
